Measured values from patent publication US20130164299A1 (CENTRE NATIONAL DE LA RECHERCHE SCIENTIFIQUE, published 2013).

Tests used:
[1] = target: T1, lectin-like transcript 1 (LLT1), recombinantly expressed on cells (human, UniProt Q9UHP7 1-191); assay: flow cytometry on C1R-LLT1 transfectants, anti-mouse IgG secondary antibody
T1 construct: In the Western blot the protein stood in cell extracts, in the IHC validation in fixed cells; also called CLEC2D; C1R-LLT1 transfectants
T1 sequence: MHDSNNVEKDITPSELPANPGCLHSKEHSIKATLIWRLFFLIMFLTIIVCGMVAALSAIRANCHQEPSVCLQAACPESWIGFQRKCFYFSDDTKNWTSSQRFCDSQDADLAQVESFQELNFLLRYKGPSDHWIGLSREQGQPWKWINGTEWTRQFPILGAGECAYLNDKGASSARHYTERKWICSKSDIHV
Procedure: (§1) C1R-LLT1 transfectants and parental C1R cells were washed in PBS containing 1% FCS and incubated with anti-LLT14F or anti-LLT14F-hIgG4 antibody at concentrations 0.0003-10 μg/ml as indicated in FIG. 4 for 30 min at 4° C. followed by incubation with fluorochrome-conjugated anti-mouse or anti-human IgG secondary antibodies, respectively. Samples were washed three times in PBS containing 1% FCS and analysed by flow cytometry.

CLEC2A-Fc protein = target: T2, CLEC2A-Fc protein (UniProt Q6UVW9 49-174); assay: ELISA, coated Fc fusion protein
T2 construct: Negative control coat in the ELISA; not shown: Fc portion recognised by anti-human Ig
T2 sequence (looked up): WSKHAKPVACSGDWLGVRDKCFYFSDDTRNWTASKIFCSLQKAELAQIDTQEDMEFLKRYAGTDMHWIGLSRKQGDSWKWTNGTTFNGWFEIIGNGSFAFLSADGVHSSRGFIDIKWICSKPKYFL
Procedure: Anti-LLT12F1A5 and anti-LLT14F were compared to mAb's 4C7 and MAB3480 with respect to binding to CLEC2D (LLT1) fusion proteins in the ELISA application. Wells were coated with Fc fusion proteins representing full-length CLEC2D or splice variant 2 and 4 hereof (CLEC2D-iso2 and -iso4, respectively). Full-length CLEC2D contains exons 1, 2, 3, 4a and 5, whereas isoforms 2 and 4 contain exons 1, 2, 3, 4a, 4b, 5 and exons 1, 2, 3, 5, respectively. Coated wells were incubated with anti-LLT12F1A5, anti-LLT14F, MAB3480 or 4C7 antibodies. Wells not coated with protein (PBS) or coated with CLEC2A-Fc protein were included as negative controls. Antibody binding was detected by HRP-conjugated anti-mouse Ig secondary antibody and chromogen. HRP-conjugated anti-human Ig antibody was included as a positive control that recognized the Fc portion of both fusion proteins.

[2] = target: T3, AICL, expressed on transfected 293T cells (UniProt Q92478 1-149, limits assumed); assay: flow cytometry on 293T cells transfected with AICL
T3 construct: whole, on cells; also called AICL-transfectants
T3 sequence (looked up): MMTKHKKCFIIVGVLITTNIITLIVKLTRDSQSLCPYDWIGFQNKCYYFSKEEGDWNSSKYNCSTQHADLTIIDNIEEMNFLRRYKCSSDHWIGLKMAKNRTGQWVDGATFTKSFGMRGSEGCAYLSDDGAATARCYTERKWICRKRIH

LLT1-Fc fusion protein [3] = target: T4, LLT1-Fc fusion protein (human, UniProt Q9UHP7 60-191, limits assumed); assay: blocking assay by flow cytometry: binding of LLT1-Fc multimers to CD161 on 293T-CD161 cells in the presence of the antibody
T4 construct: also called LLT1-hFc; LLT-Fc; not shown: human Fc (hFc)
T4 sequence: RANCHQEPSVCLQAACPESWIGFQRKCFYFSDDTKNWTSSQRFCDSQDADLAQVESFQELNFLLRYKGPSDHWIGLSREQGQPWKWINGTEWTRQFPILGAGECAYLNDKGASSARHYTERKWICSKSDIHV
Procedure: A multimeric complex was generated by incubating the LLT1-Fc fusion protein with biotinylated protein A (Pierce) at a molar ratio of 1:1. Saturating amounts of purified hIgG were added to block the remaining free protein A sites. A multimer control was generated using protein A-biotin saturated with purified hIgG. These complexes were conjugated to streptavidin-allophycocyanin (BD Biosciences). […] Anti-LLT14F (4F) or control IgG1 (ctrl IgG1) was added at concentrations 0.01-200 μg/ml. For comparison, anti-LLT12F1 (2F1A5) and AF3480 were tested in parallel with 4F in this assay. Binding of LLT1-multimers was evaluated by flow cytometry.

[4] = target: T1, lectin-like transcript 1 (LLT1), …; assay: flow cytometry on C1R-LLT1 transfectants, anti-human IgG secondary antibody
Procedure: as §1

LLT1-Fc fusion protein [5] = target: T4, LLT1-Fc fusion protein; assay: SPR (Biacore T100, 25 °C); LLT1-Fc immobilised on CM5 chip (500 RU), antibody 3.125 to 100 nM in solution
Procedure: Surface plasmon resonance measurements were performed on a Biacore T100 apparatus (Biacore) at 25° C. In all Biacore experiments, HBS buffer supplemented with 0.05% surfactant P20 served as running buffer and sensorgrams were analyzed with Biaevaluation software. Recombinant LLT1-Fc fusion protein (described by Aldemir et al in Journal of Immunology, 2005 vol. 176: 7791-7795) were immobilized covalently to carboxyl groups in the dextran layer on a Sensor Chip CM5 (Biacore). The sensor chip surface was activated with EDC/NHS(N-ethyl-N′-(3-dimethylaminopropyl) carbodiimidehydrochloride and N-hydroxysuccinimide, Biacore). Proteins diluted in coupling buffer (10 mM acetate, pH 4.5) were injected. Deactivation of the remaining activated groups was performed using 100 mM ethanolamine pH 8 (Biacore).
Anti-LLT12F1A5 was tested in a range of concentrations from 3.125 to 100 nM for binding to immobilized LLT1-Fc protein (500 RU).

B1: anti-LLT14F (antibody, mouse IgG1, V domains shown)
VH: EVQLVESGGGLVQPGGSLKLSCAASGFTVSSYGMSWVRQIPDKRLELVATINSNGGRTFYPDSVKGRFTISRDNAQNTLYLQMSSLKSEDTAMYYCARDGGYWAHFDYWGQGTTLTVSS
VL: DVLMTQTPLSLPVSLGDQASISCRSSQSIVHSNGNTYLEWYLQKPGQSPKLLIYKVSNRFSGVPDRFSGSGSGTDFTLKISRVEAEDLGVYYCFQGSHVPWTFGGGTKLEIKR
notes: also called anti-LLT14F68; anti-LLT1-4F68
[1]
  EC50 (read off the curve): ~0.04 µg/mL
CLEC2A-Fc protein
  binding result: no binding
[2]
  binding result: no binding
LLT1-Fc fusion protein [3]
  IC50 (read off the curve): ~6 µg/mL

B2: anti-LLT14F-hIgG4 (antibody, V domains shown)
VH: B1 VH
VL: B1 VL
notes: Murine variable domains of anti-LLT14F on human kappa/IgG4 scaffold; also called chimeric mouse/human anti-LLT14F; ChimLLT14F; not shown: human IgG4 heavy chain constant region (CH) with hinge mutation S241P; human kappa light chain constant domain (CL)
[4]
  EC50 (read off the curve): ~0.05 µg/mL

B3: anti-LLT12F1A5 (antibody, mouse IgG1, V domains shown)
VH: EVQLQQSGAELVRSGASVKLSCTASGFNIKDYYMHWVKQRPEQGLEWIGWIDPENGDTEYAPKFQGKATVTADTSSNTVYLQLSSLTSEDTAVYYCNGEIITTTAWFTYWGQGTLVTVSA
VL: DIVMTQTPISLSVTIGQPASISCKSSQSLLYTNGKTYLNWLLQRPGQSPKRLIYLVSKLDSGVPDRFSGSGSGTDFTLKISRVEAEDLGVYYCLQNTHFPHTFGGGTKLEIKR
notes: also called anti-LLT2F1; anti-LLT2F1A5
CLEC2A-Fc protein
  binding result: no binding
[2]
  binding result: no binding
LLT1-Fc fusion protein [5]
  Kd: 1.24 nM
